Measured values: patent US20190257845A1, “METHOD FOR CALORIMETRIC DETERMINATION OF THE LIPOPROTEIN LIPASE ACTIVITY IN HUMAN PLASMA ENVIRONMENT” (Tallinn University of Technology, priority 2016, published 2019)
One block for each molecule: values may come before it.

Legend:
lipoprotein lipase (LPL) [1] = target: T1, lipoprotein lipase (LPL) (Bos taurus, UniProt P11151); assay: ITC measurement of LPL activity in human plasma with added regulators or inhibitors; assay type: biochemical, bovine; conditions: for effect on activity of LPL in plasma: LPL 0.6 nM
T1 construct: Bovine LPL was purified from milk; from tissue; host or cells: bovine milk
T1 sequence (P11151 29-478): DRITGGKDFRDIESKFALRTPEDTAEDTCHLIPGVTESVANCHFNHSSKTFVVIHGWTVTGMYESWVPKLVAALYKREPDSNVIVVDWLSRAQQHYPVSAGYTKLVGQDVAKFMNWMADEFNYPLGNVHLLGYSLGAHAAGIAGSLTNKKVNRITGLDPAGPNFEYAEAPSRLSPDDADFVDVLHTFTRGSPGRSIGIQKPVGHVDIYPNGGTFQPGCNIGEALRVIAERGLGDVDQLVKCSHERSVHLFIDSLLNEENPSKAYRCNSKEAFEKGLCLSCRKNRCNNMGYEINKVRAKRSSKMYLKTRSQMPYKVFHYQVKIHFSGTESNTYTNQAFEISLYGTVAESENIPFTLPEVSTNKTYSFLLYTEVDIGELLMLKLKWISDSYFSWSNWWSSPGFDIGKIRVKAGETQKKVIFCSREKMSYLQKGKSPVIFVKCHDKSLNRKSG
Procedure: Preparing the reagents—Bovine LPL was purified from milk (Bengtsson-Olivecrona & Olivecrona 1991) and dialysed to buffer containing 10 mM TRIS, pH 8.5 (4° C.), 4 mM sodium deoxycholate. Stock solutions of 0.5 mg/ml LPL were stored at −80° C. The N-terminal coiled-coil domain of human angiopoietin-like protein 4 (ANGPTL4), residues 26-184, was expressed in E. coli and purified as described (Robal et al. 2012). Full-length human angiopoietin-like protein 3 (ANGPTL3) expressed in Sf 21 cells was obtained from R&D Systems (USA). Apolipoprotein C-III0 was from human blood plasma (Bengtsson-Olivecrona & Sletten 1990). Apolipoprotein C-II and apolipoprotein A-V were expressed in E. coli and purified as described (Shen et al. 2010; Beckstead et al. 2003). A synthetic peptide corresponding to the N-terminal domain of human GPIHBP1, residues 23-51, was bought from Caslo (Denmark). The sequence of the peptide was as follows: […]. Antibodies (goat IgG) to human hepatic lipase were raised in a goat against hepatic lipase isolated from human post-heparin plasma (Olivecrona & Olivecrona 2000). The IgG fraction was isolated using Protein-A columns and the final preparation contained 5 mg protein per milliliter in 20 mM Na-phosphate buffer and 0.15 M NaCl (pH 7.4).
Sample preparation—Before experiments the human plasma samples were diluted 1.2 times with TRIS buffer pH 7.4 or with the additions specified for each experiment. The final concentration of TRIS was 20 mM in all cases. Stock solutions of LPL were diluted in cold 10 mM TRIS, pH 8.5, containing 4 mM sodium deoxycholate. In this buffer, LPL is stable for a long period of time, even at low protein concentrations The final concentration of deoxycholate during incubations with plasma or lipoproteins was 10 to 100 times lower than the initial. […] In experiments with post-heparin plasma, antibodies to hepatic lipase (in PBS) or the same volume of PBS only were added (180 μl of IgG or PBS was mixed with 360 μl of post-heparin plasma) and the mixture was then incubated for 2 hours on ice prior to experiments (Olivecrona & Olivecrona 2000). All samples were degassed under vacuum for 15 minutes before the ITC experiments.
(§1) ITC measurements—Most of the experiments were performed on an Nano ITC model 5300 (TA Instruments, USA) at 25° C. A MicroCal Auto-iTC200 (GE Healthcare) instrument was used for experiments regarding relationship between total heat production and released fatty acids. In a typical experiment performed by Nano ITC, the lipase substrate (plasma, Intralipid 20% or VLDL) with or without added ligands was placed into the calorimetric cell (1035 μl) and the syringe (250 μl) was filled with LPL-containing solution (bovine LPL or post-heparin plasma) (see FIG. 1A). MilliQ water was loaded into the reference cell (1032 μl). The stirring speed in the sample cell was 400 rpm. The baseline was left to stabilize for at least 1 hour before injections of LPL or post-heparin plasma. In all experiments, the first injection was 2 μl and after that single or sequential injections of 10 to 25 μl were made. The interval between the injections was from 200 s to 500 s. In experiments performed by MicroCal Auto-iTC200, 400 μl of lipase substrate (plasma), 400 μl of equilibration buffer (20 mM TRIS, pH 7,4) and a sufficient volume of LPL (0.8 μM) were placed on the loading plate. The calorimetric cell (200 μl) was rinsed with equilibration buffer and loaded with 200 μl of substrate in an automated fashion. The syringe was loaded with 40 μl of LPL-containing solution. The stirring speed in the sample cell was 600 rpm and the baseline was stabilized automatically. The first injection of LPL was 0.2 μl and the second injection was 2 μl. The experiment time was 1 hour to allow full hydrolysis of plasma triglycerides.After each experiment the Nano ITC sample cell was washed with the following solutions, one after the other: MilliQ water, 2% SDS, 40 mM NaOH and finally 95% ethanol. […]

lipoprotein lipase (LPL) [2] = target: T1, lipoprotein lipase (LPL); assay: ITC measurement of Intralipid hydrolysis by LPL, activation by apoC-II; assay type: biochemical, bovine; conditions: Intralipid substrate
Procedure: The substrate mixture composition was as follows: 1 mg triglyceride/ml Intralipid, 10 mg/ml BSA, 10 IU/ml heparin, 0.15 M NaCl, 10 mM TRIS pH 7.4. […] Final concentration of LPL was 1.2 nM in all experiments.
Heat rate points at 200 s were obtained from FIG. 5a. The data were fitted using the following equation (Quinn et al. 1983): […]
as §1, with “[…] Raw ITC data were analysed using” for “The experiment time was 1 hour to allow full hydrolysis of plasma triglycerides.After each experiment”, “NanoAnalyze (TA Instruments) Or MicroCal Origin (GE Healthcare).” for “Nano ITC sample cell was washed with the following solutions, one after the other: MilliQ water, 2% SDS, 40 mM NaOH and finally 95% ethanol.”

Molecule: CCCCCCCCCCC[C@@H](C[C@@H]1OC(=O)[C@H]1CCCCCC)OC(=O)[C@H](CC(C)C)NC=O [THL, tetrahydrolipstatin, reference compound]
immediate drop of the activity of LPL (lipoprotein lipase (LPL) [1]; 10 μM THL, human plasma, LPL 1 nM, unchanged afterwards): 80%
THL concentration at which inhibition of LPL was detectable (lipoprotein lipase (LPL) [1]; human plasma, LPL 1 nM): 90 nM

Molecule: QQEEEEEDEDHGPDDYDEEDEDEVEEEET [N-terminal peptide of GPIHBP1, synthetic peptide corresponding to the N-terminal domain of human GPIHBP1, residues 23-51, reference compound]
protection of LPL from inactivation by ANGPTL4 (lipoprotein lipase (LPL) [1]; 100 nM ANGPTL4, LPL 0.6 nM, TG 1 mM): could not protect LPL from inactivation

B1: ANGPTL3: Full-length human angiopoietin-like protein 3 expressed in Sf 21 cells, from R&D Systems (protein, UniProt Q9Y5C1 1-460, looked up)
chain: MFTIKLLLFIVPLVISSRIDQDNSSFDSLSPEPKSRFAMLDDVKILANGLLQLGHGLKDFVHKTKGQINDIFQKLNIFDQSFYDLSLQTSEIKEEEKELRRTTYKLQVKNEEVKNMSLELNSKLESLLEEKILLQQKVKYLEEQLTNLIQNQPETPEHPEVTSLKTFVEKQDNSIKDLLQTVEDQYKQLNQQHSQIKEIENQLRRTSIQEPTEISLSSKPRAPRTTPFLQLNEIRNVKHDGIPAECTTIYNRGEHTSGMYAIRPSNSQVFHVYCDVISGSPWTLIQHRIDGSQNFNETWENYKYGFGRLDGEFWLGLEKIYSIVKQSNYVLRIELEDWKDNKHYIEYSFYLGNHETNYTLHLVAITGNVPNAIPENKDLVFSTWDHKAKGHFNCPEGYSGGWWWHDECGENNLNGKYNKPRAKSKPERRRGLSWKSQNGRLYSIKSTKMLIHPTDSESFE
modifications: full-length
notes: Full-length human angiopoietin-like protein 3 expressed in Sf 21 cells, from R&D Systems
concentration at which effect on LPL in plasma was detectable (lipoprotein lipase (LPL) [1]; human plasma): detectable already at nanomolar concentrations

Now from value to molecule:

effect on activity of LPL in plasma (lipoprotein lipase (LPL) [1]; 10 nM apoA-V, TG 1 mM): did not change the activity of LPL
effect on activity of LPL in plasma (lipoprotein lipase (LPL) [1]; 100 nM apoA-V, TG 1 mM): some inhibition was observed
B2: apoA-V: apolipoprotein A-V expressed in E. coli (protein, UniProt Q6Q788 24-366, looked up)
Apolipoprotein A-V: RKGFWDYFSQTSGDKGRVEQIHQQKMAREPATLKDSLEQDLNNMNKFLEKLRPLSGSEAPRLPQDPVGMRRQLQEELEEVKARLQPYMAEAHELVGWNLEGLRQQLKPYTMDLMEQVALRVQELQEQLRVVGEDTKAQLLGGVDEAWALLQGLQSRVVHHTGRFKELFHPYAESLVSGIGRHVQELHRSVAPHAPASPARLSRCVQVLSRKLTLKAKALHARIQQNLDQLREELSRAFAGTGTEEGAGPDPQMLSEEVRQRLQAFRQDTYLQIAAFTRAIDQETEEVQQQLAPPPPGHSAFAPEFQQTDSGKVLSKLQARLDDLWEDITHSLHDQGHSHLGDP

estimated maximal activation factor of LPL (lipoprotein lipase (LPL) [2]; 1.2 nM LPL, apoC-II 0 to 1000 nM, heat rate at 200 s, model of Quinn et al. 1983): 4.2±1.2
Kd (lipoprotein lipase (LPL) [2]; 1.2 nM LPL, heat rate at 200 s, model of Quinn et al. 1983, read-out: Kd value (affinity of apoC-II for LPL)): 22 ± 8 nM
effect on stability of LPL (lipoprotein lipase (LPL) [2]; LPL not stable without apoC-II or below 100 nM): stabilized LPL
B3: apoC-II: Apolipoprotein C-II expressed in E. coli; activator of LPL (protein, UniProt P02655 29-101, looked up)
Apolipoprotein C-II: DEMPSPTFLTQVKESLSSYWESAKTAAQNLYEKTYLPAVDEKLRDLYSKSTAAMSTYTGIFTDQVLSVLKGEE
